Laboratory results: IntAct's records for PubMed 19229295

B1: Bone morphogenetic protein receptor type-1B (Homo sapiens), O00238 (parent)
chain: MLLRSAGKLNVGTKKEDGESTAPTPRPKVLRCKCHHHCPEDSVNNICSTDGYCFTMIEEDDSGLPVVTSGCLGLEGSDFQCRDTPIPHQRRSIECCTERNECNKDLHPTLPPLKNRDFVDGPIHHRALLISVTVCSLLLVLIILFCYFRYKRQETRPRYSIGLEQDETYIPPGESLRDLIEQSQSSGSGSGLPLLVQRTIAKQIQMVKQIGKGRYGEVWMGKWRGEKVAVKVFFTTEEASWFRETEIYQTVLMRHENILGFIAADIKGTGSWTQLYLITDYHENGSLYDYLKSTTLDAKSMLKLAYSSVSGLCHLHTEIFSTQGKPAIAHRDLKSKNILVKKNGTCCIADLGLAVKFISDTNEVDIPPNTRVGTKRYMPPEVLDESLNRNHFQSYIMADMYSFGLILWEVARRCVSGGIVEEYQLPYHDLVPSDPSYEDMREIVCIKKLRPSFPNRWSSDECLRQMGKLMTECWAHNPASRLTALRVKKTLAKMSESQDIKL
partner: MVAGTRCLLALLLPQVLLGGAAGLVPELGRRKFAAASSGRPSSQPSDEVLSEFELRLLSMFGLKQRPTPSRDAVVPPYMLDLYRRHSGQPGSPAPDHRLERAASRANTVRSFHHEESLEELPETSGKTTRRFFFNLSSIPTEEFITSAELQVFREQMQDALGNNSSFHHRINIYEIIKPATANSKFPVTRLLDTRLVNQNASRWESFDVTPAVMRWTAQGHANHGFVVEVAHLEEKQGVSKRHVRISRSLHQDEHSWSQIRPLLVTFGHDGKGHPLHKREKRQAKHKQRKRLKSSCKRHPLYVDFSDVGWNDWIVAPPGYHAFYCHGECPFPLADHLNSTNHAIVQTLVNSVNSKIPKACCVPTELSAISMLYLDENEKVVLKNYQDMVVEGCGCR
B2: Bone morphogenetic protein receptor type-1B (Homo sapiens), O00238 (parent)
chain: B1 chain
partner: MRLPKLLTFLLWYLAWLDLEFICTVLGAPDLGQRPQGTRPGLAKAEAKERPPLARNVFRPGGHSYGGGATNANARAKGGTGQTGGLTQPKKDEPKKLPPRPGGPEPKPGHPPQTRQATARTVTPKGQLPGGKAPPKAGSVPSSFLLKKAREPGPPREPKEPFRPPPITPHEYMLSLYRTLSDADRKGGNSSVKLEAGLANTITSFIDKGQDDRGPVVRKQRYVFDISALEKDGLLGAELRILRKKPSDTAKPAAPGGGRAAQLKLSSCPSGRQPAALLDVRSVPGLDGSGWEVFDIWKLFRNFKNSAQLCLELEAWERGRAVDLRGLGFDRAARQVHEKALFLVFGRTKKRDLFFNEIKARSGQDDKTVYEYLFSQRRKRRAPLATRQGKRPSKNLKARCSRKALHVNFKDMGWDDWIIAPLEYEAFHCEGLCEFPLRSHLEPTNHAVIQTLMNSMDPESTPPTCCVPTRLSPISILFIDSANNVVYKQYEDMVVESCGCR

Variants of: B1
Details: with bmp2_human BMP2, P12643
With MLLRSAGKLNVGTKKEDGESTAPTPRPKVLRCKCHHHCPEDSVNNICSTDGYCFTMIEEDDSGLPVVTSGCLGLEGSDAQCRDTPIPHQRRSIECCTERNECNKDLHPTLPPLKNRDFVDGPIHHRALLISVTVCSLLLVLIILFCYFRYKRQETRPRYSIGLEQDETYIPPGESLRDLIEQSQSSGSGSGLPLLVQRTIAKQIQMVKQIGKGRYGEVWMGKWRGEKVAVKVFFTTEEASWFRETEIYQTVLMRHENILGFIAADIKGTGSWTQLYLITDYHENGSLYDYLKSTTLDAKSMLKLAYSSVSGLCHLHTEIFSTQGKPAIAHRDLKSKNILVKKNGTCCIADLGLAVKFISDTNEVDIPPNTRVGTKRYMPPEVLDESLNRNHFQSYIMADMYSFGLILWEVARRCVSGGIVEEYQLPYHDLVPSDPSYEDMREIVCIKKLRPSFPNRWSSDECLRQMGKLMTECWAHNPASRLTALRVKKTLAKMSESQDIKL [F79A] the “effect of a mutation on the interaction” value was “disrupting interaction”.

Variants of: B2
Details: with gdf5_human GDF5, P43026
For MLLRSAGKLNVGTKKEDGESTAPTPRPKVLRCKCHGHCPEDSVNNICSTDGYCFTMIEEDDSGLPVVTSGCLGLEGSDFQCRDTPIPHQRRSIECCTERNECNKDLHPTLPPLKNRDFVDGPIHHRALLISVTVCSLLLVLIILFCYFRYKRQETRPRYSIGLEQDETYIPPGESLRDLIEQSQSSGSGSGLPLLVQRTIAKQIQMVKQIGKGRYGEVWMGKWRGEKVAVKVFFTTEEASWFRETEIYQTVLMRHENILGFIAADIKGTGSWTQLYLITDYHENGSLYDYLKSTTLDAKSMLKLAYSSVSGLCHLHTEIFSTQGKPAIAHRDLKSKNILVKKNGTCCIADLGLAVKFISDTNEVDIPPNTRVGTKRYMPPEVLDESLNRNHFQSYIMADMYSFGLILWEVARRCVSGGIVEEYQLPYHDLVPSDPSYEDMREIVCIKKLRPSFPNRWSSDECLRQMGKLMTECWAHNPASRLTALRVKKTLAKMSESQDIKL [H36G], the “effect of a mutation on the interaction” value was “decreasing interaction”. For MLLRSAGKLNVGTKKEDGESTAPTPRPKVLRCKCSHHCPEDSVNNICSTDGYCFTMIEEDDSGLPVVTSGCLGLEGSDFQCRDTPIPHQRRSIECCTERNECNKDLHPTLPPLKNRDFVDGPIHHRALLISVTVCSLLLVLIILFCYFRYKRQETRPRYSIGLEQDETYIPPGESLRDLIEQSQSSGSGSGLPLLVQRTIAKQIQMVKQIGKGRYGEVWMGKWRGEKVAVKVFFTTEEASWFRETEIYQTVLMRHENILGFIAADIKGTGSWTQLYLITDYHENGSLYDYLKSTTLDAKSMLKLAYSSVSGLCHLHTEIFSTQGKPAIAHRDLKSKNILVKKNGTCCIADLGLAVKFISDTNEVDIPPNTRVGTKRYMPPEVLDESLNRNHFQSYIMADMYSFGLILWEVARRCVSGGIVEEYQLPYHDLVPSDPSYEDMREIVCIKKLRPSFPNRWSSDECLRQMGKLMTECWAHNPASRLTALRVKKTLAKMSESQDIKL [H35S], the “effect of a mutation on the interaction” value was “decreasing interaction”.

Variants of: B2
Details: with gdf5_human GDF5, P43026
Remark: another data set of the same source
MLLRSAGKLNVGTKKEDGESTAPTPRPKVLRCKCHHHCPEDSVNNICSTDGYCFTMIEEDDSGLPVVTSGCLGLEGSDAQCRDTPIPHQRRSIECCTERNECNKDLHPTLPPLKNRDFVDGPIHHRALLISVTVCSLLLVLIILFCYFRYKRQETRPRYSIGLEQDETYIPPGESLRDLIEQSQSSGSGSGLPLLVQRTIAKQIQMVKQIGKGRYGEVWMGKWRGEKVAVKVFFTTEEASWFRETEIYQTVLMRHENILGFIAADIKGTGSWTQLYLITDYHENGSLYDYLKSTTLDAKSMLKLAYSSVSGLCHLHTEIFSTQGKPAIAHRDLKSKNILVKKNGTCCIADLGLAVKFISDTNEVDIPPNTRVGTKRYMPPEVLDESLNRNHFQSYIMADMYSFGLILWEVARRCVSGGIVEEYQLPYHDLVPSDPSYEDMREIVCIKKLRPSFPNRWSSDECLRQMGKLMTECWAHNPASRLTALRVKKTLAKMSESQDIKL [F79A] was tested, and the “effect of a mutation on the interaction” value was “disrupting interaction”.

Variants of: B2
Details: with gdf5_human GDF5, P43026
Remark: another data set of the same source
For MLLRSAGKLNVGTKKEDGESTAPTPRPKVLRCKCHHHCPEDSVNNICSTDGYCFTMIEEDDSGLPVVTSGCLGLEGSDFACRDTPIPHQRRSIECCTERNECNKDLHPTLPPLKNRDFVDGPIHHRALLISVTVCSLLLVLIILFCYFRYKRQETRPRYSIGLEQDETYIPPGESLRDLIEQSQSSGSGSGLPLLVQRTIAKQIQMVKQIGKGRYGEVWMGKWRGEKVAVKVFFTTEEASWFRETEIYQTVLMRHENILGFIAADIKGTGSWTQLYLITDYHENGSLYDYLKSTTLDAKSMLKLAYSSVSGLCHLHTEIFSTQGKPAIAHRDLKSKNILVKKNGTCCIADLGLAVKFISDTNEVDIPPNTRVGTKRYMPPEVLDESLNRNHFQSYIMADMYSFGLILWEVARRCVSGGIVEEYQLPYHDLVPSDPSYEDMREIVCIKKLRPSFPNRWSSDECLRQMGKLMTECWAHNPASRLTALRVKKTLAKMSESQDIKL [Q80A], the “effect of a mutation on the interaction” value was “decreasing interaction”.
